Measured values reported in patent US20180362628A1 (KYMAB, published 2018).
Where two headings read alike, the source gives them in different places. No end group written: not given here. *: point of attachment. Biotin = O=C1N[C@H]2[C@H](CS[C@H]2CCCCC(=O)*)N1

Experiments:
[1] = molecular target: T1, Peptide #3 (Biotin-SGSGHKKLKQPGDGNPDPNANPN) (N-terminal biotin); assay: BLI, biotin-peptide on streptavidin sensor, IgG1 in solution, 25 C;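 as to Response (nm): antibody solution at 30 µg/mL during association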
T1 construct: also called Peptide #3 44288
T1 peptide: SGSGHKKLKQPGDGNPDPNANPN

[2] = molecular target: T2, Peptide #4 (Biotin-SGSGNPDPNANP); assay: as above
T2 construct: also called Peptide #4 44285
T2 peptide: Biotin-SGSGNPDPNANP

[3] = molecular target: T3, Peptide #5 (Biotin-SGSGDGNPDPNANPNV), original sequence of the alanine scan; assay: as above
T3 construct: also called Peptide #5 44289
T3 peptide: Biotin-SGSGDGNPDPNANPNV

[4] = molecular target: T4, Peptide #6 (Biotin-SGSGAGNPDPNANPNV); assay: as above
T4 construct: alanine scan variant; also called Peptide #6 44290
T4 peptide: Biotin-SGSGAGNPDPNANPNV

[5] = molecular target: T5, Peptide #7 (Biotin-SGSGDANPDPNANPNV); assay: as above
T5 construct: alanine scan variant; also called Peptide #7 44291
T5 peptide: Biotin-SGSGDANPDPNANPNV

[6] = molecular target: T6, Peptide #8 (Biotin-SGSGDGAPDPNANPNV); assay: as above
T6 construct: alanine scan variant; also called Peptide #8 44292
T6 peptide: Biotin-SGSGDGAPDPNANPNV

[7] = molecular target: T7, Peptide #9 (Biotin-SGSGDGNADPNANPNV); assay: as above
T7 construct: alanine scan variant; also called Peptide #9 44293
T7 peptide: Biotin-SGSGDGNADPNANPNV

[8] = molecular target: T8, Peptide #10 (Biotin-SGSGDGNPAPNANPNV); assay: as above
T8 construct: alanine scan variant; also called Peptide #10 44294
T8 peptide: Biotin-SGSGDGNPAPNANPNV

[9] = molecular target: T9, Peptide #11 (Biotin-SGSGDGNPDANANPNV); assay: as above
T9 construct: alanine scan variant; also called Peptide #11 44295
T9 peptide: Biotin-SGSGDGNPDANANPNV

[10] = molecular target: T10, Peptide #12 (Biotin-SGSGDGNPDPAANPNV); assay: as above
T10 construct: alanine scan variant; also called Peptide #12 44296
T10 peptide: Biotin-SGSGDGNPDPAANPNV

[11] = molecular target: T11, Peptide #13 (Biotin-SGSGDGNPDPNKNPNV); assay: as above
T11 construct: scan variant, alanine replaced by lysine; also called Peptide #13 44297
T11 peptide: Biotin-SGSGDGNPDPNKNPNV

[12] = molecular target: T12, Peptide #14 (Biotin-SGSGDGNPDPNAAPNV); assay: as above
T12 construct: alanine scan variant; also called Peptide #14 44298
T12 peptide: Biotin-SGSGDGNPDPNAAPNV

[13] = molecular target: T13, Peptide #15 (Biotin-SGSGDGNPDPNANANV); assay: as above
T13 construct: alanine scan variant; also called Peptide #15 44299
T13 peptide: Biotin-SGSGDGNPDPNANANV

[14] = molecular target: T14, Peptide #16 (Biotin-SGSGDGNPDPNANPAV); assay: as above
T14 construct: alanine scan variant; also called Peptide #16 44300
T14 peptide: Biotin-SGSGDGNPDPNANPAV

[15] = molecular target: T15, Peptide #17 (Biotin-SGSGDGNPDPNANPNA); assay: as above
T15 construct: alanine scan variant; also called Peptide #17 44301
T15 peptide: Biotin-SGSGDGNPDPNANPNA

[16] = molecular target: T16, Peptide #1 (Biotin-SGSGKPKHKKLKQPGDGNPDPNANP) (N-terminal biotin); assay: as above
T16 construct: also called Peptide #1 44286
T16 peptide: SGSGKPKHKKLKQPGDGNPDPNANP

[17] = molecular target: T17, biotinylated rCSP (biotin/rCSP, Example 3) (Plasmodium falciparum strain 3D7, UniProt P02893 19-389, biotinylated (sites not given)); assay: BLI (Octet), biotin-rCSP on streptavidin sensor, antibody in solution
T17 construct: also called biotin/Pf CSP
T17 chain: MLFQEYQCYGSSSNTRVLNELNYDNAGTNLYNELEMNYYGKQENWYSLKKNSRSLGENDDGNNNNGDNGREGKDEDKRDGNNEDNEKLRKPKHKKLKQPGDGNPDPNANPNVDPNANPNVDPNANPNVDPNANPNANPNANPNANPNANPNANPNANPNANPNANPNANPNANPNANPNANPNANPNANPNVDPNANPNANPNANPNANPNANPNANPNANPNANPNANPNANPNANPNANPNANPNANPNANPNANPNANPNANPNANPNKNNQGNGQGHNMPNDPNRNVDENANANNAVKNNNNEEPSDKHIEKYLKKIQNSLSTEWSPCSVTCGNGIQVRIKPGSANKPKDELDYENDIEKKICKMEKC

[18] = molecular target: T17, biotinylated rCSP (biotin/rCSP, Example …); assay: as above
[19] = molecular target: T18, Recombinant CSP (Wellcome Trust Sanger Institute, FIG. 22), CSP ectodomain with BirA biotinylation tag, … (Plasmodium falciparum strain 3D7, UniProt Q7K740 19-376, biotinylated at the BirA substrate peptide); assay: SPR, IgG1 captured, CSP as analyte, 40 C; apparent affinity (avidity)
T18 construct: extracellular domain; Expressed in HEK293, 45 kDa; order of the tags is that of the legend, not confirmed; also called biotinylated recombinant CSP

B1: Antibody 668, human IgG1 (antibody, V domains shown)
VH: QVQLVQSGAEVKKPGASVKVSCKASGFTFTDYAMHWVRQAPGQRLEWMGWINAGNGYTKYSQKFQDRLTITRDTFASTVYMELSSLRSEDTTVYYCARDGFCPSNTCSGYYGMDVWGQGTTVTVSS
VL: QSALTQPASVSGSPGQSITISCTGTSSDVGSYNYVSWYQQHPGKAPKLMIYDVNTRPSGVSIRFSASKSGNTASLTVSGLQAEDEAVYYCSSYAGSSTWVFGGGTKLTVL
notes: human IgG1 with human lambda light chain constant region; HEK293 product; also called AB-000668; Ab668
- Response (nm) [1]: 6.34 nm
- Response (nm) [2]: 4.69 nm
- Response (nm) [3]: 4.71 nm
- Response (nm) [4]: 4.9 nm
- Response (nm) [5]: 4.88 nm
- Response (nm) [6]: 4.86 nm
- Response (nm) [7]: 4.72 nm
- Response (nm) [8]: 5.82 nm
- Response (nm) [9]: 6.01 nm
- Response (nm) [10]: 4.74 nm
- binding result [11]: no binding (tested: LOD 0.170 nm)
- Response (nm) [12]: 0.597 nm
- Response (nm) [13]: 5.69 nm
- Response (nm) [14]: 4.72 nm
- Response (nm) [15]: 4.86 nm
- Response (nm) [16]: 6.47 nm
- Kd [17]: 0.57 nM
- Kd [18]: 0.57 nM
- koff [18]: 7.1e-05 s⁻¹
- kon [18]: 125000 M⁻¹ s⁻¹
- Kd [19]: 0.05 nM
- koff [19]: 2.47e-05 s⁻¹
- kon [19]: 540000 M⁻¹ s⁻¹
